Source: PMC11189300, “Structure of the human KMN complex and implications for regulation of its assembly” (Nature Structural & Molecular Biology, 2024)
Residue numbers refer to the chain shown, from its start. Names and notes keep the numbering of the source.

B1: Mis12 complex (Mis12C), full length: MIS12, PMF1, NSL1, DSN1 (complex, human)
chain 1: MSVDPMTYEAQFFGFTPQTCMLRIYIAFQDYLFEVMQAVEQVILKKLDGIPDCDISPVQIRKCTEKFLCFMKGHFDNLFSKMEQLFLQLILRIPSNILLPEDKCKETPYSEEDFQHLQKEIEQLQEKYKTELCTKQALLAELEEQKIVQAKLKQTLTFFDELHNVGRDHGTSDFRESLVSLVQNSRKLQNIRDNVEKESKRLKIS
chain 2: MAEASSANLGSGCEEKRHEGSSSESVPPGTTISRVKLLDTMVDTFLQKLVAAGSYQRFTDCYKCFYQLQPAMTQQIYDKFIAQLQTSIREEISDIKEEGNLEAVLNALDKIVEEGKVRKEPAWRPSGIPEKDLHSVMAPYFLQQRDTLRRHVQKQEAENQQLADAVLAGRRQVEELQLQVQAQQQAWQALHREQRELVAVLREPE
chain 3: MAGSPELVVLDPPWDKELAAGTESQALVSATPREDFRVRCTSKRAVTEMLQLCGRFVQKLGDALPEEIREPALRDAQWTFESAVQENISINGQAWQEASDNCFMDSDIKVLEDQFDEIIVDIATKRKQYPRKILECVIKTIKAKQEILKQYHPVVHPLDLKYDPDPAPHMENLKCRGETVAKEISEAMKSLPALIEQGEGFSQVLRMQPVIHLQRIHQEVFSSCHRKPDAKPENFITQIETTPTETASRKTSDMVLKRKQTKDCPQRKWYPLRPKKINLDT
chain 4: MTSVTRSEIIDEKGPVMSKTHDHQLESSLSPVEVFAKTSASLEMNQGVSEERIHLGSSPKKGGNCDLSHQERLQSKSLHLSPQEQSASYQDRRQSWRRASMKETNRRKSLHPIHQGITELSRSISVDLAESKRLGCLLLSSFQFSIQKLEPFLRDTKGFSLESFRAKASSLSEELKHFADGLETDGTLQKCFEDSNGKASDFSLEASVAEMKEYITKFSLERQTWDQLLLHYQQEAKEILSRGSTEAKITEVKVEPMTYLGSSQNEVLNTKPDYQKILQNQSKVFDCMELVMDELQGSVKQLQAFMDESTQCFQKVSVQLGKRSMQQLDPSPARKLLKLQLQNPPAIHGSGSGSCQ
notes: MIS12, human, subunit of the Mis12 complex; PMF1, human, subunit of the Mis12 complex; NSL1, human, subunit of the Mis12 complex; DSN1, human, subunit of the Mis12 complex (DSN1^SORT-HIS); In BLI one partner was biotinylated by sortase (GGGG-biotin peptide); also called Mis12C^WT; wild-type Mis12C; source: Tnao38 insect cells (baculovirus from pBIG1A), purified (Talon, SEC); copies: + + +
B2: SPC24/SPC25^L154A-L176A (complex, human)
chain 1: MAAFRDIEEVSQGLLSLLGANRAEAQQRRLLGRHEQVVERLLETQDGAEKQLREILTMEKEVAQSLLNAKEQVHQGGVELQQLEAGLQEAGEEDTRLKASLLQLTRELEELKEIEADLERQEKEVDEDTTVTIPSAVYVAQLYHQVSKIEWDYECEPGMVKGIHHGPSVAQPIHLDSTQLSRKFISDYLWSLVDTEW
chain 2: MVEDELALFDKSINEFWNKFKSTDTSCQMAGLRDTYKDSIKAFAEKLSVKLKEEERMVEMFLEYQNQISRQNKLIQEKKDNLLKLIAEVKGKKQELEVLTANIQDLKEEYSRKKETISTANKANAERLKRLQKSADLYKDRLGLEIRKIYGEKAQFIFTNIDPKNPESPFMFSLHANEARDYEVSDSAPHLEGLAEFQENVRKTNNFSAFLANVRKAFTATVYN
notes: SPC24, human; SPC25, human, L154A and L176A; limits not restated, likely full length; GST cleaved off with 3C protease; also called SPC^M2; source: E. coli BL21(DE3)-codon-plus-RIPL, purified (glutathione-agarose, 3C protease, SEC)
B3: SPC24^Y138A/SPC25 (complex, human)
chain 1: B2 chain 1 with Y138A
chain 2: B2 chain 2 with A154L, A176L
notes: SPC24, human, Y138A; SPC25, human; limits not restated, likely full length; GST cleaved off with 3C protease; also called SPC^M1; source: E. coli BL21(DE3)-codon-plus-RIPL, purified (glutathione-agarose, 3C protease, SEC)
B4: SPC25_(92–224) (domain or fragment, human, UniProt Q9HBM1 92-224, looked up)
chain: KKQELEVLTANIQDLKEEYSRKKETISTANKANAERLKRLQKSADLYKDRLGLEIRKIYGEKLQFIFTNIDPKNPESPFMFSLHLNEARDYEVSDSAPHLEGLAEFQENVRKTNNFSAFLANVRKAFTATVYN
notes: SPC25, human, residues 92–224 (RWD domain); source: E. coli BL21(DE3)-codon-plus-RIPL, co-purified with SPC24 (glutathione-agarose, 3C protease, SEC)
B5: KNL1 residues 2,021–2,342 (domain or fragment, human, UniProt Q8NG31 2021-2342, looked up)
chain: GKLVQSAQNEREKLQIKIDEMDKILKKIDNCLTEMETETKNLEDEEKNNPVEEWDSEMRAAEKELEQLKTEEEELQRNLLELEVQKEQTLAQIDFMQKQRNRTEELLDQLSLSEWDVVEWSDDQAVFTFVYDTIQLTITFEESVVGFPFLDKRYRKIVDVNFQSLLDEDQAPPSSLLVHKLIFQYVEEKESWKKTCTTQHQLPKMLEEFSLVVHHCRLLGEEIEYLKRWGPNYNLMNIDINNNELRLLFSSSAAFAKFEITLFLSAYYPSVPLPSTIQNHVGNTSQDDIATILSKVPLENNYLKNVVKQIYQDLFQDCHFYH
notes: KNL1 (CASC5), human, C-terminal region, residues 2,021–2,342; numbering of isoform 1 of the CASC5 gene; also called KNL1_(2,021–2,342); Knl1_(2,021–2,342); source: E. coli BL21(DE3)-Codon-plus-RIPL, purified (glutathione-agarose, TEV cleavage, SEC)

What was measured:
Settings in all cases: both partners purified
[1] = target: T1, Ndc80 complex (Ndc80C): NDC80^HEC1, NUF2, SPC24, SPC25 (human, UniProt O14777 1-642; Q9BZD4 1-464; Q8NBT2 1-197; Q9HBM1 1-224); assay: BLI; Octet SA biosensors loaded with the biotinylated ligand, analyte at different concentrations; 25 °C; 50 mM HEPES pH 8.0, 150 mM NaCl, 2 mM TCEP, 0.05% Tween-20; which partner was loaded is not given
T1 construct: NDC80 (HEC1), human; NUF2, human; SPC24, human; SPC25, human; also called complete Ndc80C; copies: + + +

[2] = target: B1; assay: ITC; PEAQ-ITC; 50 mM HEPES pH 8.0, 150 mM NaCl, 1 mM TCEP; 19 injections; one-site binding fit
[3] = target: T2, DSN1 (subunit of Mis12C in the KMN structure) (human, UniProt Q9H410 1-356); assay: cryo-EM structure; eight-subunit KMN (full-length Mis12C, SPC24 109–197/SPC25 92–224, ZWINT, KNL1 2,021–2,342), 0.3 mg/ml with 0.003% Triton; reconstruction at 4.5 Å; model fitted from known structures and AF2 predictions and refined against the map
T2 construct: DSN1, human; also called DSN1^SORT-HIS; source: Tnao38 insect cells (baculovirus), co-expressed in Mis12C, purified (Talon, SEC)
T2 sequence (looked up): B1 chain 4

[4] = target: B1; assay: as above

T1 sequence (O14777 whole entry, chain 1 of 2): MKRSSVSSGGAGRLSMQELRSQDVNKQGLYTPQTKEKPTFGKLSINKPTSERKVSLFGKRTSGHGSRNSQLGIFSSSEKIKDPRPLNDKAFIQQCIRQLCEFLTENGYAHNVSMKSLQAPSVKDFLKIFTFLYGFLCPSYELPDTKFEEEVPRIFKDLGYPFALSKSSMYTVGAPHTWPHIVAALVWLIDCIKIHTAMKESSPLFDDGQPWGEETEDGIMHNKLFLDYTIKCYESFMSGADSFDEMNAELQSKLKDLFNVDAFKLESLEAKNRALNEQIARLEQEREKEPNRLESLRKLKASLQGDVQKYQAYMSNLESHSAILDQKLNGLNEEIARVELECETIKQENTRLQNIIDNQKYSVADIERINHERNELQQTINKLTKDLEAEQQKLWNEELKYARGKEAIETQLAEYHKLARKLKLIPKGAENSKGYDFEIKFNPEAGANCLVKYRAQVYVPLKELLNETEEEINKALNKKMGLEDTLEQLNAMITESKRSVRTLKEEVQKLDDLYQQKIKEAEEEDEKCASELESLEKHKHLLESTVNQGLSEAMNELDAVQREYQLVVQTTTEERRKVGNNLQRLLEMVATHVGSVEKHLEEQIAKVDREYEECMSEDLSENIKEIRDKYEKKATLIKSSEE
T1 sequence (Q9BZD4 whole entry, chain 2 of 2): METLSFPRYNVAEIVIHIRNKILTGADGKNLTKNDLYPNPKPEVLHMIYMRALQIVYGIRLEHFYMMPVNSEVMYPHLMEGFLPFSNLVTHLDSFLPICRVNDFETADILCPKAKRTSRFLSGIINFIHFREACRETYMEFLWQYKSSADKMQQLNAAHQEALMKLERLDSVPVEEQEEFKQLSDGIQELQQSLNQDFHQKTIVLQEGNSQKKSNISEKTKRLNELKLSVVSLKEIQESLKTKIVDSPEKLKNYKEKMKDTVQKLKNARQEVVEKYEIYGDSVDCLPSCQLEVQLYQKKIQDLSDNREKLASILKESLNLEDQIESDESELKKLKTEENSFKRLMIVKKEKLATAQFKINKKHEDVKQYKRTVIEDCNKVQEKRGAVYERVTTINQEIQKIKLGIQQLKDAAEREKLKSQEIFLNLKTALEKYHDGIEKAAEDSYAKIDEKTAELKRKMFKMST

In the case of B1, the Kd [1] is reported as about 6 nM.

With B2 the “fold reduction of binding affinity against the wild-type pair” value [2] was about 27 fold.

In the case of B3, the “fold reduction of binding affinity against the wild-type pair” value [2] is reported as about 5 fold.

B4: binds [3].

B5: binds [4]; binds [3].
